The labels stand for the following.
B1: RXRα LBD (protein)
chain: NEDMPVERILEAELAVEPKTETYVEANMGLNPSSPNDPVTNICQAADKQLFTLVEWAKRIPHFSELPLDDQVILLRAGWNELLIASFSHRSIAVKDGILLATGLHVHRNSAHSAGVGAIFDRVLTELVSKMRDMQMDKTELGCLRAIVLFNPDSKGLSNPAEVEALREKVYASLEAYCKHKYPEQPGRFAKLLLRLPALRSIGLKCLEHLFFFKLIGDTPIDTFLMEMLEAP
modifications: UAB111
B2: RXRα LBD (protein)
chain: B1 chain
modifications: UAB110
B3: RXRα LBD (protein)
chain: B1 chain
modifications: UAB30

Usually Kd stands for the free concentration of one partner at which half of the binding sites on the other are occupied at equilibrium, for simple one-to-one binding.

In one assay the target is T1, GRIP-1 (Homo sapiens, UniProt Q15596). Description: thermal shift.
T1 sequence (Q15596 2-1464): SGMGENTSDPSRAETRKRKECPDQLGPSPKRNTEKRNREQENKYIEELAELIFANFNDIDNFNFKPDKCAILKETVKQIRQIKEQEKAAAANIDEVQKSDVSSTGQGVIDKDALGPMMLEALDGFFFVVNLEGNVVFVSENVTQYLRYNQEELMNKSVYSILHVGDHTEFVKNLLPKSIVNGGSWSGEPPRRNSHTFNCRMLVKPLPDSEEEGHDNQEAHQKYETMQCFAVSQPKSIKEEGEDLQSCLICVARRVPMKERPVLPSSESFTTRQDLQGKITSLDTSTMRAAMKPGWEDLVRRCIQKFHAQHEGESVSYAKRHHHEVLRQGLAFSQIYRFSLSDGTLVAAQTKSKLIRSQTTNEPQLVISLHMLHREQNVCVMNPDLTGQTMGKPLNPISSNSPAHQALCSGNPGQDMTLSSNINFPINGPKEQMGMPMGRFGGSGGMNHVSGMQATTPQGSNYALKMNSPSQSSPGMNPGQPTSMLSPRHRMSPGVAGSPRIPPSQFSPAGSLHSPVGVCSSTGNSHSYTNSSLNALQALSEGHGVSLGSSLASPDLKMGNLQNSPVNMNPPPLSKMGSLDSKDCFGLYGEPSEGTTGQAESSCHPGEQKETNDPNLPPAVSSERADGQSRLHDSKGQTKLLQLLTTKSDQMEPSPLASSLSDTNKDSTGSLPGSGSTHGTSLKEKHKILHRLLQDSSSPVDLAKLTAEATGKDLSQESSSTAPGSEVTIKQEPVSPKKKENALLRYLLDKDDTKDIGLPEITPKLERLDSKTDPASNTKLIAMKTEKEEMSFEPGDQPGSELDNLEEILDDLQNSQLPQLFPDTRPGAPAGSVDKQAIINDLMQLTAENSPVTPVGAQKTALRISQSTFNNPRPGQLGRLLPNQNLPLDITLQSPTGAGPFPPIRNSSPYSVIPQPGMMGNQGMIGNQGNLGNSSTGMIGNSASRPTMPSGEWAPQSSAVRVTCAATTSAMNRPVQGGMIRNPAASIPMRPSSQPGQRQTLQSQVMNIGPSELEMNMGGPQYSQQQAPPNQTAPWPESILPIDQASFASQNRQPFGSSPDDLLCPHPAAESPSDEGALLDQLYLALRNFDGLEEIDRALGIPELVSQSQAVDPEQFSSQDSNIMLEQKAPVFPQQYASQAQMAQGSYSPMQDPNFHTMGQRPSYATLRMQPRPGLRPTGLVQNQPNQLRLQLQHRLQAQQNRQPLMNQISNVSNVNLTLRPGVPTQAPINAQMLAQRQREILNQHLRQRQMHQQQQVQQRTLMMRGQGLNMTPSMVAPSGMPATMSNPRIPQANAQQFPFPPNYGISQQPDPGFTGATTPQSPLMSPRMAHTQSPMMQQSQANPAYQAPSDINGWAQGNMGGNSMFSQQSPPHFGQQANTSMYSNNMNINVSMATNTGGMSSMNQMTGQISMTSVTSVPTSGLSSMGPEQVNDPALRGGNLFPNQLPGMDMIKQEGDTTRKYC
As for B1, the Kd was determined as 24 µM.

On to B2, for which the dissociation constant Kd stood at 26 µM.

As for B3, the Kd was 22 µM.

The target of a further assay is T1, GRIP-1. Put plainly: thermal shift, van't Hoff to 25 °C.
B1: the Kd is 1.8 µM.

As for B2, the Kd is 1.5 µM.

For the molecule B3, the Kd worked out at 0.74 µM.
